We go through one molecule from article PMC11494953 (2024).

This test deals with EV-A71 2C protein (analyte of the SPR assay) (Enterovirus A71 (strain ), UniProt Q66478 1112-1440). The test is described as follows: SPR.

B1: UBE3C protein (TP315110, ORIGENE) (enzyme)
chain: MFSFEGDFKTRPKVSLGGASRKEEKASLLHRTQEERRKREEERRRLKNAIIIQSFIRGYRDRKQQYSIQRSAFDRCATLSQSGGAFPIANGPNLTLLVRQLLFFYKQNEDSKRLIWLYQNLIKHSSLFVKQLDGSERLTCLFQIKRLMSLCCRLLQNCNDDSLNVALPMRMLEVFSSENTYLPVLQDASYVVSVIEQILHYMIHNGYYRSLYLLINSKLPSSIEYSDLSRVPIAKILLENVLKPLHFTYNSCPEGARQQVFTAFTEEFLAAPFTDQIFHFIIPALADAQTVFPYEPFLNALLLIESRCSRKSGGAPWLFYFVLTVGENYLGALSEEGLLVYLRVLQTFLSQLPVSPASASCHDSASDSEEESEEADKPSSPEDGRLSVSYITEECLKKLDTKQQTNTLLNLVWRDSASEEVFTTMASVCHTLMVQHRMMVPKVRLLYSLAFNARFLRHLWFLISSMSTRMITGSMVPLLQVISRGSPMSFEDSSRIIPLFYLFSSLFSHSLISIHDNEFFGDPIEVVGQRQSSMMPFTLEELIMLSRCLRDACLGIIKLAYPETKPEVREEYITAFQSIGVTTSSEMQQCIQMEQKRWIQLFKVITNLVKMLKSRDTRRNFCPPNHWLSEQEDIKADKVTQLYVPASRHVWRFRRMGRIGPLQSTLDVGLESPPLSVSEERQLAVLTELPFVVPFEERVKIFQRLIYADKQEVQGDGPFLDGINVTIRRNYIYEDAYDKLSPENEPDLKKRIRVHLLNAHGLDEAGIDGGGIFREFLNELLKSGFNPNQGFFKTTNEGLLYPNPAAQMLVGDSFARHYYFLGRMLGKALYENMLVELPFAGFFLSKLLGTSADVDIHHLASLDPEVYKNLLFLKSYEDDVEELGLNFTVVNNDLGEAQVVELKFGGKDIPVTSANRIAYIHLVADYRLNRQIRQHCLAFRQGLANVVSLEWLRMFDQQEIQVLISGAQVPISLEDLKSFTNYSGGYSADHPVIKVFWRVVEGFTDEEKRKLLKFVTSCSRPPLLGFKELYPAFCIHNGGSDLERLPTASTCMNLLKLPEFYDETLLRSKLLYAIECAAGFELS
Consider B1, for which the Kd turned out to be 72.1 µM.

The Kd is the free concentration of one partner at which half of the binding sites on the other are occupied at equilibrium, for simple one-to-one binding. Read a high Kd as weaker binding.
